In patent EP4242303A1 (Novozymes A/S, dated 2023):
Positions count from the first letter of the chain named. Names may count otherwise.

T1: deamidase polypeptide from Chryseobacterium sp-62563 (deamidase domain of the pro-form SEQ ID NO: 5) (Chryseobacterium sp-62563)
T1 chain: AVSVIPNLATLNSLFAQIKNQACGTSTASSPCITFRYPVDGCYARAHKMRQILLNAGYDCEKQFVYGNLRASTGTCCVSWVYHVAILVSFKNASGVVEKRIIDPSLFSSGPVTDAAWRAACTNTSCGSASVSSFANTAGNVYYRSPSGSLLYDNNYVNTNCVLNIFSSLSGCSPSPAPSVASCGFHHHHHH

T2: deamidase polypeptide from Chryseobacterium defluvii (deamidase domain of the fusion polypeptide SEQ ID NO: … (Chryseobacterium defluvii))
T2 chain: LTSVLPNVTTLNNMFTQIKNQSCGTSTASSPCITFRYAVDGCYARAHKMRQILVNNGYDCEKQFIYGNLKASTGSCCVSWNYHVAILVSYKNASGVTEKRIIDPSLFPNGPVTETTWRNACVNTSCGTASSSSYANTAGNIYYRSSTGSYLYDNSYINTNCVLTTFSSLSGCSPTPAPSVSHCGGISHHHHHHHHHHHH

T3: deamidase polypeptide from Chryseobacterium gambrini (deamidase domain of the fusion polypeptide SEQ ID NO: … (Chryseobacterium gambrini))
T3 chain: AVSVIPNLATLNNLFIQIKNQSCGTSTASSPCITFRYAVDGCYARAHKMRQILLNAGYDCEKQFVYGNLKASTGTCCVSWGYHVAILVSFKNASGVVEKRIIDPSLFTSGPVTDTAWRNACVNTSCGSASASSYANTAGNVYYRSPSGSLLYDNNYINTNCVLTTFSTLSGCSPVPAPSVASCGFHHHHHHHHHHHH

T4: deamidase polypeptide from Chryseobacterium culicis (deamidase domain of the fusion polypeptide SEQ ID NO: 15) (Chryseobacterium culicis)
T4 chain: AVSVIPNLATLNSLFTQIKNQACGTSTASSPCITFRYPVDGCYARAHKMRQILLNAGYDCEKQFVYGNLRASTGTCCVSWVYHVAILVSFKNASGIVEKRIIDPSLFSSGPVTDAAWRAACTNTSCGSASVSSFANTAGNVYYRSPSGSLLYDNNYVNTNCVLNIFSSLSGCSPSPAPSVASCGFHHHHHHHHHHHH

B1: variant deamidase propeptide F38C of Chryseobacterium sp-62563 (SEQ ID NO: 2) (other)
chain: NQDPNLVAKESNETAMKDFGKTVPVGIEKEDGKFKISCMVTAQPYEIKDSKENAAYISMIKTAVENETPIHVFLKANTNEIAKVDKATDDDIRYFKSVFTKEVKEENRK
B2: variant deamidase propeptide F99A of Chryseobacterium sp-62563 (SEQ ID NO: 2) (other)
chain: B1 chain with C38F, F99A
B3: variant deamidase propeptide F99G of Chryseobacterium sp-62563 (SEQ ID NO: 2) (other)
chain: B1 chain with C38F, F99G
B4: variant deamidase propeptide F99K of Chryseobacterium sp-62563 (SEQ ID NO: 2) (other)
chain: B1 chain with C38F, F99K
B5: variant deamidase propeptide V23S of Chryseobacterium sp-62563 (SEQ ID NO: 2) (other)
chain: B1 chain with V23S, C38F
B6: variant deamidase propeptide Y45G of Chryseobacterium sp-62563 (SEQ ID NO: 2) (other)
chain: B1 chain with C38F, Y45G
B7: variant deamidase propeptide Y45T of Chryseobacterium sp-62563 (SEQ ID NO: 2) (other)
chain: B1 chain with C38F, Y45T
B8: variant deamidase propeptide Y94P of Chryseobacterium sp-62563 (SEQ ID NO: 2) (other)
chain: B1 chain with C38F, Y94P
B9: propeptide from Chryseobacterium defluvii (propeptide domain of the fusion polypeptide SEQ ID NO: 20) (other)
chain: ATNQDVVGKENTSNHVAARDFGKTVPVGINEENGTLKVSFILSAQFYEIKPSKENEEYISLIRQAIQNESPIHVFMKLNSNEIVKVEKGTEEDVKYFRSILTKEVKEENRK
B10: propeptide from Chryseobacterium gambrini (propeptide domain of the fusion polypeptide SEQ ID NO: 10) (other)
chain: NQDPNLVVKENNENAMRDFGSTIPVGIQKEGNVLKVSFIISAQFYEIKDSKENEAFISMIKSAIENETPVHVFLKKNSNEIAKVEKATDEDVTYFKSIFTKEVKEENRK
B11: propeptide from Chryseobacterium sp-62563 (wildtype propeptide domain of the protein glutamine deamidase pro-form SEQ ID NO: 5) (other)
chain: B1 chain with C38F
B12: propeptide from Chryseobacterium culicis (propeptide domain of the fusion polypeptide SEQ ID NO: 15) (other)
chain: NQDPNLVAKESNEIAMKDFGKTVPVGIEKEEGKFKVSFMVSAQPYHIKDSKENAGYISMIRQAVENETPVHIFLKTNTNEIAKVDKPTDDDIRYFKSVFTKEVKEENRK

Biological target: T1, deamidase polypeptide from …
Test: cell-based or functional assay

Row | Binder | Relative activity of "activated" sample (% initial rate)
1 | B1 | ≥ 100%
2 | B2 | ≥ 100%
3 | B3 | ≥ 100%
4 | B4 | ≥ 100%
5 | B5 | ≥ 100%
6 | B6 | ≥ 100%
7 | B7 | ≥ 100%
8 | B8 | ≥ 100%

Biological target: T2, deamidase polypeptide from …
Test: cell-based or functional assay

Row | Binder | NanoDSF thermal unfolding temperature
9 | B9 | 89 °C

Biological target: T3, deamidase polypeptide from …
Test: cell-based or functional assay

Row | Binder | NanoDSF thermal unfolding temperature
10 | B10 | 89.3 °C

Biological target: T1, deamidase polypeptide from …
Test: cell-based or functional assay
Remark: another data set of the same source

Row | Binder | NanoDSF thermal unfolding temperature
11 | B11 | 85.3 °C

Biological target: T4, deamidase polypeptide from …
Test: cell-based or functional assay

Row | Binder | NanoDSF thermal unfolding temperature
12 | B12 | 85.2 °C

Biological target: T1, deamidase polypeptide from …
Test: cell-based or functional assay
Remark: another data set of the same source

Row | Binder | NanoDSF thermal unfolding temperature
13 | B1 | 76.2 °C
14 | B2 | 76.4 °C
15 | B3 | 74.1 °C
16 | B4 | 75.4 °C
17 | B5 | 69.8 °C
18 | B6 | 65.2 °C
19 | B7 | 73.7 °C
20 | B8 | 75.2 °C

Biological target: T1, deamidase polypeptide from …
Test: cell-based or functional assay
Remark: another data set of the same source

Row | Binder | Leakage activity
21 | B1 | 26%
22 | B2 | 20%
23 | B3 | 20%
24 | B4 | 32%
25 | B5 | 10%
26 | B6 | 2%
27 | B7 | 2%
28 | B8 | 23%
